Like-named read-outs stand apart in the source and are kept apart here.
Experiments:
Gardnerella leopoldii = experiment: MIC / MBC99.5 assessment in suspension; format: cell-based
Method: (§1) The minimum inhibitory concentration (MIC), which is a standard measure of the activity of antimicrobials, was determined according to the Clinical and Laboratory Standards Institute protocol (2018) Methods for Antimicrobial Susceptibility Testing of Anaerobic Bacteria (Carpenter et al., 2018). […] Controls for growth in the absence of antimicrobials were also included. OD600 was recorded by a microplate reader (Tecan, Grodig, Austria) after incubation at 37° C. for 48 h or, for some fast-growing strains, after incubation for 24 h. Absence of growth was defined as OD600≤0.14. […] MIC readout and MBC99.5 spotting were performed after 72 h incubation for H2B10B11.
(§2) However, topical intravaginal antibiotic administration is recommended for BV therapy, which allows to reach concentrations of active ingredients in the mg/mL range. […] Abbreviations: n.d., not determined; SJHB, St. Jan Hospital Bruges.
(§3) MIC90 is defined as the MIC value for 90% of the tested strains. For PM-477 (H2B10), the resistance breakpoint is not defined, therefore a “% resistant” is not defined (n.d.).

Gardnerella piotii = experiment: MIC / MBC99.5 assessment in suspension; format: cell-based
Method: as §1, §2, §3

Gardnerella vaginalis = experiment: microbe, parasite or virus in culture; format: cell-based; conditions: for MIC before passaging: 48 h incubation
Method: as §1, §2, §3

[1] = test system: passaged G. vaginalis biofilm; experiment: MBEC on biofilms of passaged strains; format: cell-based, Gardnerella vaginalis
Method: (§4) Gardnerella spp. (see figures for strain specification) was resuspended in brain heart infusion broth supplemented with 2% (w/v) gelatin, 0.5% yeast extract (w/v), 0.1% starch (w/v) and 0.25% glucose (w/v) (sBHIG). Passaged strains were resuspended in unbuffered NYCB supplemented with 1% glucose (w/v) (sNYCB). The OD600 was set to 0.1 (approx. 10^7-10^8 CFU/mL) and the cell suspension was diluted 1:10 in growth medium as input for biofilm formation. A total of 200 μL of the respective bacterial suspensions was added to 96-well flat bottom plates (tissue-culture treated, Sigma-Aldrich). The biofilms were grown under anaerobic conditions at 37° C. for 40 to 72 hours, depending on the isolate. Subsequently, the supernatant was removed, and the biofilm was treated with antimicrobials dissolved in sBHIG (at pH 5 for treatment with PM-477 (H2B10), and unbuffered for treatment with antibiotics) in 100 μL and incubated anaerobically at 37° C. for another 24 hours. After the treatment, the biofilms were washed twice with 200 μL 1x PBS and dissolved by vigorous pipetting (40x up and down). Serial dilutions of the dissolved cells were spotted on chocolate agar plates. The plates were incubated anaerobically for two to three days and the minimum biofilm eradication concentration (MBEC) of the endolysin or the antibiotics in use were calculated.
All MICs determined after 48 h of incubation.

passaged G. piotii = experiment: MIC on strains passaged with MDZ-OH; format: cell-based, Gardnerella piotii; conditions: G. piotii (UGent 18.01T) passaged with MDZ-OH, 48 h incubation
Method: as §1, with “H2B10B11. MBC99.5 is the minimum concentration of an antibacterial agent that results in bacterial death of all cells in suspension up to a defined limit of detection, resulting in killing of at least 99.5% of bacteria.” for “H2B10B11.”
The final volume of the reaction was 100 µL and the reactions were performed in triplicate in 384-well plates. The OD600 was measured using a microplate reader (Tecan, Grodig, Austria) to generate timepoint 0 h baseline values. […] In each round, the input CFU/mL was determined by quantitative plating.
The susceptibility of Gardnerella strains before and after 8 to 9-times passaging with sub-MIC concentrations of MZD or MDZ-OH is shown in Table 4 below. All MICs determined after 48 h of incubation.

G. swidsinskii biofilm = format: cell-based, Gardnerella swidsinskii
Method: as §4
Gardnerella dominated biofilms covering the human vaginal epithelial cells are now generally considered as a hallmark of BV. Thus, it was tested how effective antibiotics and PM-477 (H2B10) are in penetrating and killing in vitro pre-formed, 40-72 h old biofilms of various Gardnerella strains.

[2] = Gardnerella leopoldii, N=3 strains
[3] = Gardnerella piotii, N=7 strains

B1: PM-477: genetically engineered recombinant Gardnerella-specific endolysin, amino acid sequence SEQ ID NO: 1, His-tag cleaved off (protein)
chain: SKRGIDVSEWQGDIDFNAVKASGVEFVIIRAGYGIGCKDKWFEQNYRKAKTCGLDVGAYWYSYANSGFEAAEEAQSCVNMLSGKSFEYPVYFDLEEKSQLNRGRAFCDSLITGFCNKLESCGYYAGFYTSLSTANNLVSAHVRNRYALWIAQWNTHCSYQGSYGLWQYSSSGSVPGVAGRVDMDYAYVDYPSIIKNVGLNGYKNGGSYTAPQISSIDEVAREVINGDWGNGNERKQRLTSAGYDYASVQNKVNELLGVKAYRKSVDELAREVIRGTWGNGSTRKQRLTQAGYDYNAVQKRVNELL
modifications: His-tag cleaved off; H2B10
MBC99.5 (Gardnerella leopoldii; G. leopoldii (BV13) UGent BV13.2): 2 µg/mL | MIC (Gardnerella leopoldii; G. leopoldii (BV13) UGent BV13.2, suspension): 0.5 µg/mL | MBC99.5 (Gardnerella leopoldii; G. leopoldii (BV217) UGent BV217.1): 1 µg/mL | MIC (Gardnerella leopoldii; G. leopoldii (BV217) UGent BV217.1, suspension): 0.25 µg/mL | MBC99.5 (Gardnerella leopoldii; G. leopoldii (Gl11) UGent 09.48): 0.5 µg/mL | MIC (Gardnerella leopoldii; G. leopoldii (Gl11) UGent 09.48, suspension): 0.125 µg/mL | MIC90 (Gardnerella leopoldii; [2]): 0.5 µg/mL | MIC Range (Gardnerella leopoldii; [2]): 0.125 to 0.5 µg/mL | MBC99.5 (Gardnerella piotii; G. piotii (BV049) UGent BV049.1): 1 µg/mL | MIC (Gardnerella piotii; G. piotii (BV049) UGent BV049.1, suspension): 1 µg/mL | MBC99.5 (Gardnerella piotii; G. piotii (BV140) UGent BV140.2): 2 µg/mL | MIC (Gardnerella piotii; G. piotii (BV140) UGent BV140.2, suspension): 1 µg/mL | MBC99.5 (Gardnerella piotii; G. piotii (BV154) UGent BV154.1): 1 µg/mL | MIC (Gardnerella piotii; G. piotii (BV154) UGent BV154.1, suspension): 0.5 µg/mL | MBC99.5 (Gardnerella piotii; G. piotii (FB041) UGent FB041): 1 µg/mL | MIC (Gardnerella piotii; G. piotii (FB041) UGent FB041, suspension): 0.5 µg/mL | MBC99.5 (Gardnerella piotii; G. piotii (Gp17) UGent 18.01(T)): 4 µg/mL | MIC (Gardnerella piotii; G. piotii (Gp17) UGent 18.01(T), suspension): 1 µg/mL | MBC99.5 (Gardnerella piotii; G. piotii (Gp22) UGent 21.28): 2 µg/mL | MIC (Gardnerella piotii; G. piotii (Gp22) UGent 21.28, suspension): 1 µg/mL | MBC99.5 (Gardnerella piotii; G. piotii (P80275) UGent P80275): 1 µg/mL | MIC (Gardnerella piotii; G. piotii (P80275) UGent P80275, suspension): 0.5 µg/mL | MIC before passaging (Gardnerella piotii; G. piotii (UGent 18.01T), 48 h incubation): 1 µg/mL | MIC90 (Gardnerella piotii; [3]): 1 µg/mL | MIC Range (Gardnerella piotii; [3]): 0.5 to 1 µg/mL | MIC before passaging (Gardnerella vaginalis; G. vaginalis (ATCC 14018T)): 0.06 µg/mL | MBC99.5 (Gardnerella vaginalis; G. vaginalis (BV50) UGent BV50.1): 1 µg/mL | MIC (Gardnerella vaginalis; G. vaginalis (BV50) UGent BV50.1, suspension): 0.5 µg/mL | MBC99.5 (Gardnerella vaginalis; G. vaginalis (BV111) UGent BV111.5): 0.5 µg/mL | MIC (Gardnerella vaginalis; G. vaginalis (BV111) UGent BV111.5, suspension): 0.25 µg/mL | MBC99.5 (Gardnerella vaginalis; G. vaginalis (FB049) UGent FB049-01): 0.25 µg/mL | MIC (Gardnerella vaginalis; G. vaginalis (FB049) UGent FB049-01, suspension): 0.25 µg/mL | MBC99.5 (Gardnerella vaginalis; G. vaginalis (FB061) UGent FB061-03): 2 µg/mL | MIC (Gardnerella vaginalis; G. vaginalis (FB061) UGent FB061-03, suspension): 0.5 µg/mL | MBC99.5 (Gardnerella vaginalis; G. vaginalis (Gv1) UGent 09.07): 1 µg/mL | MIC (Gardnerella vaginalis; G. vaginalis (Gv1) UGent 09.07, suspension): 0.25 µg/mL | MBC99.5 (Gardnerella vaginalis; G. vaginalis (Gv5) UGent 09.01): 0.125 µg/mL | MIC (Gardnerella vaginalis; G. vaginalis (Gv5) UGent 09.01, suspension): <0.03 µg/mL | MBC99.5 (Gardnerella vaginalis; G. vaginalis (Gv8) UGent 25.49): 0.125 µg/mL | MIC (Gardnerella vaginalis; G. vaginalis (Gv8) UGent 25.49, suspension): 0.03 µg/mL | MIC (Gardnerella vaginalis; G. vaginalis (Gv9) ATCC 14018(T), suspension): 0.06 µg/mL | MBC99.5 (Gardnerella vaginalis; G. vaginalis (Gv9) ATCC 14018(T), reduces CFU by 99.5% within 24 h): 0.25 µg/mL | MIC before passaging (Gardnerella vaginalis; G. vaginalis (UGent 09.07)): 0.25 µg/mL | MIC before passaging (Gardnerella vaginalis; G. vaginalis (UGent BV50)): 0.5 µg/mL | MIC Range (Gardnerella vaginalis; Gardnerella vaginalis, N=8 strains): <0.03 to 0.5 µg/mL | MIC90 (Gardnerella vaginalis; Gardnerella vaginalis, N=8 strains, MIC value for 90% of the tested strains): 0.5 µg/mL | MBEC passaged ([1]; G. vaginalis (ATCC 14018T) passaged with MDZ): 2 to 8 µg/mL | MBEC passaged ([1]; G. vaginalis (UGent 09.07) passaged 8 times with MDZ-OH): 2 to 4 µg/mL | MBEC passaged ([1]; G. vaginalis (UGent BV50) passaged with MDZ-OH): 1 to 8 µg/mL | MIC passaged (passaged G. piotii): 2 µg/mL | MBEC (G. swidsinskii biofilm; ancestor G. swidsinskii GS 9838-1, pre-formed biofilm): <2 µg/mL | MBEC (G. swidsinskii biofilm; ancestor G. swidsinskii UGent BV 7.1, pre-formed biofilm): 32 µg/mL

Reference: US20250144186A1, “NOVEL THERAPEUTIC USES OF GARDNERELLA ENDOLYSINS” (priority 2022, published 2025)
